Experimental findings from publication doi:10.1101/869289 (bioRxiv, 2019) are described below.

The labels stand for the following.
B2: Tim10b (natural protein, human, UniProt Q9Y5J6 1-103, looked up)
chain: MERQQQQQQQLRNLRDFLLVYNRMTELCFQRCVPSLHHRALDAEEEACLHSCAGKLIHSNHRLMAAYVQLMPALVQRRIADYEAASAVPGVAAEQPGVSPSGS
B3: Tim22 (natural protein, human, UniProt Q9Y584 1-194, looked up)
chain: MAAAAPNAGGSAPETAGSAEAPLQYSLLLQYLVGDKRQPRLLEPGSLGGIPSPAKSEEQKMIEKAMESCAFKAALACVGGFVLGGAFGVFTAGIDTNVGFDPKDPYRTPTAKEVLKDMGQRGMSYAKNFAIVGAMFSCTECLIESYRGTSDWKNSVISGCITGGAIGFRAGLKAGAIGCGGFAAFSAAIDYYLR
B4: Tim10a (natural protein, human, UniProt P62072 1-90, looked up)
chain: MDPLRAQQLAAELEVEMMADMYNRMTSACHRKCVPPHYKEAELSKGESVCLDRCVSKYLDIHERMGKKLTELSMQDEELMKRVQQSSGPA
B5: Tim29 (natural protein, human, UniProt Q9BSF4 32-260, looked up)
chain: GSWARALLRDYAEACRDASAEARARPGRAAVYVGLLGGAAACFTLAPSEGAFEEALLEASGTLLLLAPATRNRESEAFVQRLLWLRGRGRLRYVNLGLCSLVYEAPFDAQASLYQARCRYLQPRWTDFPGRVLDVGFVGRWWVLGAWMRDCDINDDEFLHLPAHLRVVGPQQLHSETNERLFDEKYKPVVLTDDQVDQALWEEQVLQKEKKDRLALSQAHSLVQAEAPR

What all share (assay): cryo-EM structure
Test [1] deals with B3.
The target of test [2] is T1, acylglycerol kinase (AGK) (human, UniProt Q53H12 1-422).
T1 sequence (looked up): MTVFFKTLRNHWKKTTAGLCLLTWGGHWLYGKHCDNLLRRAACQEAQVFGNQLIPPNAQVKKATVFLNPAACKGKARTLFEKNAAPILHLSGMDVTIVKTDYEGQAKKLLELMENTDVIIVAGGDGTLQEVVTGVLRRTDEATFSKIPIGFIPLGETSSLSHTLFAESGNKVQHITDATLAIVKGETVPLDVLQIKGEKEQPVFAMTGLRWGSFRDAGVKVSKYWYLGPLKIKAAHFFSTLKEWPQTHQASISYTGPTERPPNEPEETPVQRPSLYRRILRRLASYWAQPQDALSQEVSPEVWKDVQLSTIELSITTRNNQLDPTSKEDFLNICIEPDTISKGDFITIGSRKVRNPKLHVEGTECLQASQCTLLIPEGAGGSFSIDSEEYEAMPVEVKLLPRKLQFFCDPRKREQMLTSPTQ

For test [3], the target named is B5.
Test [4] deals with B2.
Test [5] has as its target B4.

B1: Tim9 (natural protein, human, UniProt Q9Y5J7 1-89, looked up)
chain: MAAQIPESDQIKQFKEFLGTYNKLTETCFLDCVKDFTTREVKPEETTCSEHCLQKYLKMTQRISMRFQEYHIQQNEALAAKAGLLGQPR
Consider B1, for which the binding result in test [1], in test [2], in test [3] and in test [4] was “binds” each time. Further, the “stoichiometry N” value in test [5] is 1 Tim9:Tim10a (3:3 in the hexamer).
Take B2: the binding result in test [2] and in test [3] was “binds” in each case.
Turning to B3, the binding result in test [3] is given as “binds”.
Regarding B4, the binding result in test [1], in test [2], in test [3] and in test [4] was “binds” each time.
In the case of B5, the binding result in test [2] is “binds”.
